Legend:
C3d C3d (Homo sapiens) = C3d C3d (Homo sapiens) (UniProt P01024); assay: biolayer interferometry; conditions: cited from earlier work
[1] = biological target: complement component C3b, serum-derived (human) (UniProt P01024)
[2] = biological target: complement component C3b, serum-derived (human) (UniProt P01024); remark: listed apart in the source

Chain of C3d C3d (Homo sapiens) (P01024 1002-1303): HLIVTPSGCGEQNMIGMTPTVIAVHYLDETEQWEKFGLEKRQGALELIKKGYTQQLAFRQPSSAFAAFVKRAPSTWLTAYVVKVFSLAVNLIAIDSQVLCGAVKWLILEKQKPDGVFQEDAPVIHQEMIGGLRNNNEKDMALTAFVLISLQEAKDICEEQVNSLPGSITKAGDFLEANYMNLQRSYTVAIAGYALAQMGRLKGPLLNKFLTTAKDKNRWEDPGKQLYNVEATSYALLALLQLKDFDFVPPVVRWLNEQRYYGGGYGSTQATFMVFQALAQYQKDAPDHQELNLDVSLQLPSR
Chain of CFHR3 (Q02985 19-330): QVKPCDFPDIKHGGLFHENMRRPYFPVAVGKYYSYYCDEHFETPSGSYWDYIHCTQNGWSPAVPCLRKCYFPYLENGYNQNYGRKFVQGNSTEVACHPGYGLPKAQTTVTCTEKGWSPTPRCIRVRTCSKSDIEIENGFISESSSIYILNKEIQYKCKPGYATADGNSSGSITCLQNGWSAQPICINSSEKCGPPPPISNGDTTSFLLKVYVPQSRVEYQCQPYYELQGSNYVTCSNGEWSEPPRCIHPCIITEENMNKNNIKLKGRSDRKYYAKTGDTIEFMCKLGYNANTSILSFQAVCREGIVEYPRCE
Chain of complement factor H (CFH), recombinant (P08603 19-1231): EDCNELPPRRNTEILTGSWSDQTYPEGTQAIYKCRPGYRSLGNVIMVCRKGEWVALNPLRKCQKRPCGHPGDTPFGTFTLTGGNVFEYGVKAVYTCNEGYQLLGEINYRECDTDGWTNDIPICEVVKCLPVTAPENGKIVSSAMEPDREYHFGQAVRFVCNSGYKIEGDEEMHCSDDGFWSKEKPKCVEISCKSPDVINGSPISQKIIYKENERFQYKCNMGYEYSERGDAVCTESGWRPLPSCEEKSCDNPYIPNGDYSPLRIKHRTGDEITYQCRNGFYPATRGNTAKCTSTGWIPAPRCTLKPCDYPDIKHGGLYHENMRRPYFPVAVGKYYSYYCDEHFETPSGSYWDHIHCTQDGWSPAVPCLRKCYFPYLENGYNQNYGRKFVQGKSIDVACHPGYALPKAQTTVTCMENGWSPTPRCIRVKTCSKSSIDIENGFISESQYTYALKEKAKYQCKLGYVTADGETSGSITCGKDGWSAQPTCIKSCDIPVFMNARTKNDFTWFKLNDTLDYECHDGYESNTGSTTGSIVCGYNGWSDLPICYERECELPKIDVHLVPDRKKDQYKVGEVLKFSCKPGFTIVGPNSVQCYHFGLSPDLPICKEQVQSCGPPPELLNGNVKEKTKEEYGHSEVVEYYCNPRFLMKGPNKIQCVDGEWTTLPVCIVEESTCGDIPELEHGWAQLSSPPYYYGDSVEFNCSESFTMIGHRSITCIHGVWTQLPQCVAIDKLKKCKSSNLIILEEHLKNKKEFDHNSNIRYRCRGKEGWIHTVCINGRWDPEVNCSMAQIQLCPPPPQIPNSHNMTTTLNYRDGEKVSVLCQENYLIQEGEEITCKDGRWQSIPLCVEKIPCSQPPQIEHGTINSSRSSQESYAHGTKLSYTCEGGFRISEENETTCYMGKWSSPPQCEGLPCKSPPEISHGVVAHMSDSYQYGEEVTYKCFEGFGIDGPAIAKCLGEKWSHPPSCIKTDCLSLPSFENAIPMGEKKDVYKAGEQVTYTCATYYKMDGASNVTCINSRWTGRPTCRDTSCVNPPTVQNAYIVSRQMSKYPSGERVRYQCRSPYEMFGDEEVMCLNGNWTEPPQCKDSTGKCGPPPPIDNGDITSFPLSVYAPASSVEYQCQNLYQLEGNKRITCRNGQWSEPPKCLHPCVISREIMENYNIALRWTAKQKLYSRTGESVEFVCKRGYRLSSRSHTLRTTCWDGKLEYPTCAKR
Chain of CFHR1 (Q03591 19-330): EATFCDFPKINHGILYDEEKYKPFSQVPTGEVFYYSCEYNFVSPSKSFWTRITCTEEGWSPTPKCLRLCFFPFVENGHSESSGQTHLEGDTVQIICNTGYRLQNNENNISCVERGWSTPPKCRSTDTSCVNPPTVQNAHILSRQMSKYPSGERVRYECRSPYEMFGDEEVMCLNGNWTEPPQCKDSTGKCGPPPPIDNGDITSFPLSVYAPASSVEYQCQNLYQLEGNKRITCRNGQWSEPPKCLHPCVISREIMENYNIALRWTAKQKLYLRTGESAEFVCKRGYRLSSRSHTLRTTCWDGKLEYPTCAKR
Chain of complement factor H-related protein 1 (CFHR1), recombinant wild-type (Q03591 19-330): as above

CFHR1 (from UniProt Q03591)
Kd (C3d C3d (Homo sapiens)): 1200 nM

CFHR1 Mut1 (N216A/D218A) (from UniProt Q03591 19-330) (natural protein)
alternative pathway hemolysis of guinea pig erythrocytes in 10% NHS with 140 nM CFH plus 2 μM CFHR1 Mut1 (competition with CFH for C3b; ~8% with CFH alone) [1]: 8%

CFHR1 Mut2 (Q238A/Y241A) (from UniProt Q03591 19-330) (natural protein)
alternative pathway hemolysis of guinea pig erythrocytes in 10% NHS with 140 nM CFH plus 2 μM CFHR1 Mut2 (competition with CFH for C3b; ~8% with CFH alone) [1]: 6%

CFHR1 Mut3 (Y52S/S54Y/Y57E) (from UniProt Q03591 19-330) (natural protein)
alternative pathway hemolysis of guinea pig erythrocytes in 10% NHS with 140 nM CFH plus 2 μM CFHR1 Mut3 (competition with CFH for C3b; ~8% with CFH alone) [2]: 12%

CFHR3 (from UniProt Q02985)
Kd (C3d C3d (Homo sapiens)): 1100 nM

complement factor H (CFH), recombinant (from UniProt P08603-1 19-1231) (natural protein)
alternative pathway hemolysis of guinea pig erythrocytes in 10% NHS with 140 nM CFH added (~58% without added CFH) [1]: 8%

complement factor H-related protein 1 (CFHR1), recombinant wild-type (from UniProt Q03591 19-330) (natural protein)
alternative pathway hemolysis of guinea pig erythrocytes in 10% NHS with 140 nM CFH plus 2 μM wild-type CFHR1 (competition with CFH for C3b; ~8% with CFH alone) [1]: 23%

Source: PMC5096715
